Where a chain is given by its changes, count along the chain named.
Experiments:
[1] = biological target: T1, N-terminal ECD protein of mouse FGFR3 with a terminal avidin tag (mouse, UniProt Q61851 21-369); experiment: SPR (Biacore), FGFR3 ECD immobilised on chip, antibody injected, 1:1 fit
T1 construct: extracellular domain; not shown: terminal avidin tag
T1 sequence (looked up): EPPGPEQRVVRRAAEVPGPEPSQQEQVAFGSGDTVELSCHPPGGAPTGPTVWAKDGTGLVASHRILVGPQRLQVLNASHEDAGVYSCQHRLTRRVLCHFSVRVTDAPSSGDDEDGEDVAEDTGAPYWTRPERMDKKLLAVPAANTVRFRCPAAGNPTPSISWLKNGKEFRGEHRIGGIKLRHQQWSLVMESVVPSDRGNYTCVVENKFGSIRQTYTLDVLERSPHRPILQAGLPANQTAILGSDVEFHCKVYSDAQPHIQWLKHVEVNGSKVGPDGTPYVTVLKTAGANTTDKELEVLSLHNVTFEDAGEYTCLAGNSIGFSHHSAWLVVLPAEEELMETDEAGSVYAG

cynomolgus FGFR3 = biological target: T2, cynomolgus FGFR3 (cynomolgus); experiment: reactivity grade (Table 2); method not given
T2 construct: also called cynoFGFR3
T2 chain: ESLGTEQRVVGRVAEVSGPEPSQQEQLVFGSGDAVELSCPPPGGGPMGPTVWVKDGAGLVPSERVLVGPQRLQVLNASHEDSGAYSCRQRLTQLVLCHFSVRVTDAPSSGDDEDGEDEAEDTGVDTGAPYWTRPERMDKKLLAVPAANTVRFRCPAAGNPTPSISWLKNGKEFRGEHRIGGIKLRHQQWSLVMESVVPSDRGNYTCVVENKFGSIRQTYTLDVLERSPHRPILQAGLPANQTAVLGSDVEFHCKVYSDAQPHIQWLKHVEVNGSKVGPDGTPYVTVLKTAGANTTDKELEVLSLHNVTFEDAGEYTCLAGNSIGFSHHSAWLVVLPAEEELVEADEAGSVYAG

human FGFR3 isoform IIIb = biological target: T3, human FGFR3 isoform IIIb (human, UniProt P22607-2 23-377); experiment: reactivity grade (Table 2); method not given
T3 construct: Isoform IIIb differs from the canonical IIIc entry in the D3 domain; also called hFGFR3IIIb; FGFR3 IIIb
T3 sequence (looked up): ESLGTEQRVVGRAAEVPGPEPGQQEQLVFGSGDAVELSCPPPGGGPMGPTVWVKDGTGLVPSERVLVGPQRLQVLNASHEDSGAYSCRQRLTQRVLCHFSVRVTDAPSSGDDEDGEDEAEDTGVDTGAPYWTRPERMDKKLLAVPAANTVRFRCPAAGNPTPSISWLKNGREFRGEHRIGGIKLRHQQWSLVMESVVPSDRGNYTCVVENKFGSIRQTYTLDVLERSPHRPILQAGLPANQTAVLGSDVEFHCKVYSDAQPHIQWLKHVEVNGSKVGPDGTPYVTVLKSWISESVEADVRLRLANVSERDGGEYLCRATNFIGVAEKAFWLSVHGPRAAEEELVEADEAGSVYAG

human FGFR3 isoform IIIc = biological target: T4, human FGFR3 isoform IIIc (human, UniProt P22607 23-375, limits assumed); experiment: reactivity grade (Table 2); method not given
T4 construct: also called hFGFR3IIIc; FGFR3 IIIc
T4 sequence: T2 chain with V13A, S17P, S22G, A57T, L94R, K171R

WT PRCs = WT PRCs (mouse, UniProt Q61851); experiment: cell-based or functional assay
[2] = biological target: T5, FGFR3 fused to β-galactosidase fragments (FGFR3-PK and FGFR3-EA) co-expressed in U2OS cells; experiment: cell-based or functional assay
[3] = biological target: T6, human FGFR3 G380R isoform IIIc, full length, expressed on transfected cells (human, UniProt P22607 23-806); experiment: FACS, cells transfected with mutant FGFR3 (G380R)
T6 construct: also called mutant FGFR3; FGFR3^G380R-300.19
Protocol: (§1) After three washes, the cells were incubated with a fluorescent-conjugated secondary antibody (Invitrogen).

[4] = biological target: T7, wild-type human FGFR3 isoform IIIc, full length, expressed on transfected cells (human, UniProt P22607 23-806); experiment: FACS, cells transfected with wild-type FGFR3
T7 construct: also called wild-type FGFR3; FGFR3-300.19
Protocol: as §1

[5] = biological target: T5, FGFR3 fused to β-galactosidase …; experiment: cell-based or functional assay; remark: listed apart in the source

B1: KE94 (antibody, V domains shown)
VH: QVQLQQSGAELVRPGASVTLSCKASGSTFTDFEIHWVKQTPVHGLEWIGAIDPETGGTAYNQKFKGKAILTAVKSSSTAYMGLRSLTSEDSAVYYCTRNYDGYSRTMDYWGQGTSVTVSS
VL: NIMMTQSPSSLAVSAGEKVTMSCKSSQSVLYSSNQKNYLAWYQQKPGQSPKLLIYWASTRESGVPDRFTGSGSGTDFSLSISSVQTEDLAVYYCHQYLSSYTFGGGTRLEMK
notes: Mouse monoclonal antibody from a hybridoma; also called anti-FGFR3 antibody KE94
Kd [1]: 2.1 nM
koff [1]: 0.00148 s⁻¹
kon [1]: 705000 M⁻¹ s⁻¹
binding result (cynomolgus FGFR3): binds
binding result (human FGFR3 isoform IIIb): binds
binding result (human FGFR3 isoform IIIc): binds

B2: KC18_Hu46 (antibody, human IgG1, kappa, V domains shown)
VH: EVQLVQSGAEVKKPGATVKLSCKASGDTFTDFEIHWVQQAPGKGLEWIGDVDPETGGTAYAEKFQGRATLTADRSTDTAYLELSSLRSEDTAVYYCTRTYDGYPYAFDYWGQGTLVTVSS
VL: DIVMTQSPDSLAVSLGERVTINCKSSQSVLYSDNQKNYLAWYQQKPGQSPKLLIYFASTRESGVPDRFSGSGSGTDFTLTISSVQAEDVAVYYCQQYYSYRTFGGGTKLEIKR
IC50, inhibition of FGF18-stimulated Erk phosphorylation (pErk/Erk %, HTRF), 'Hu46 on WT PRCs' (WT PRCs): 0.55 µg/ml

B3: KC18 (antibody, V domains shown)
VH: QVQLQQSGAELVRPGASVTLSCKASGDTFTDFEIHWVKQTPVHGLEWIGDIDPETGGTAYNQKFRGRAMLTADRSSSTAYMELRSLTSEDSAVYYCTRTYDGYPYAMDYWGQGTSVTVSS
VL: DIVMSQSPSSLAVSVGEKVTMSCKSSQSLLYSNNQKNYLAWYQQKPGQSPKLLIYWASTRESGVPDRFTGSGSGTDFTLTISSVKAEDLAVYYCQQYYSYRTFGGGTKLEIKR
EC50, inhibition of FGF18-induced FGFR3 dimerization (RLU, beta-galactosidase complementation in U2OS cells); table column 'KC18 with FGF' [2]: 0.521 µg/mL

B4: KE63 (antibody, V domains shown)
VH: B1 VH with T30S, A50G, V73D, K74R, G82E, R105Q
VL: B1 VL with S78T, S80T, T86A, R108K
notes: Mouse hybridoma monoclonal antibody
binding result [3]: binds
binding result [4]: binds

B5: KC18 (antibody, V domains shown)
VH: B3 VH
VL: DIVMSQSPSSLAVSVGEKVTMSCKSSQSLLYSNNQKNYLAWYQQKPGQSPKLLIYWASTRESGVPDRFTGSGSGTDFTLTISSVKAEDLAVYYCQQYYSYRTFGGGTKLEIK
notes: Mouse monoclonal antibody from a hybridoma; also called anti-FGFR3 antibody KC18; KC18 mouse antibody
Kd [1]: 6.3 nM
koff [1]: 0.0011 s⁻¹
kon [1]: 174000 M⁻¹ s⁻¹
binding result (cynomolgus FGFR3): binds
binding result (human FGFR3 isoform IIIb): binds
binding result (human FGFR3 isoform IIIc): binds

B6: KE35 (antibody, V domains shown)
VH: EVQLQQSGPELVKPGASVKMSCKASGYTFTDYNMHWVKQSHGKSLEWIGYINPNNGGTRYNQKFKGKATLTVNKSSSTAYMELRSLTSEDSAVYYCARERDYDGAMDYWGQGTSVTVSS
VL: DIQMTQSPSSLSASLGGKVTITCKASQDINKFIAWYQHKPGKGPRLLIHYTSTLQPGIPSRFSGSGSGRDYSFSISNLEPEDIATYYCLQYDNLLWTFGGGTKLEIK
notes: as for B4
binding result [3]: binds
binding result [4]: binds

B7: KE42 (antibody, V domains shown)
VH: B6 VH with E46Q, R59N, K63N, G66D, S77T, A105S, Y108F
VL: B6 VL with Y87F
notes: as for B4
binding result [3]: binds
binding result [4]: binds

B8: KE58 (antibody, V domains shown)
VH: EVQLQQSGPDLVKPGASVKISCKASGYTVTDYYMNWVKQSHGKSLEWIGDINPNNGVTTYNQKFKDKATLTVDKSSSTAYMELRSLTSEDSAVYYCAREEDFDGFDYWGQGTTLTVSS
VL: DIVMTQSHKFMSTSVGDRVSITCKASQDVSTGVAWYQQKPGQSPQLLIYWASTRHTGVPDRFTGSGSGTDYILTIRSVQAEDLALYYCQQHYSTPLTFGAGTKLELK
notes: as for B4
binding result [3]: binds
EC50, inhibition of FGF18-induced FGFR3 dimerization (RLU, beta-galactosidase complementation in U2OS cells); fitted curve 'KE58 with FGF18' [5]: 0.423 µg/mL
binding result [4]: binds
